Test results published in US20200292553A1, “COMPOSITION FOR PREDICTING OR DIAGNOSING LIVER DISEASE, AND LIVER DISEASE PREDICTION OR DIAGNOSIS METHOD USING SAME” (SEOUL NATIONAL UNIVERSITY HOSPITAL, priority 2017, published 2020).

What was measured:
Kupffer cells = test: GDF15 mRNA expression after palmitate treatment, Kupffer cells; assay type: cell-based; conditions: for increase in GDF15 mRNA expression: after 6 hours
Method: Primary hepatic cells were isolated and differentiated into hepatocytes, HSCs, Kupffer cells, and liver sinusoidal endothelial cells (LSECs). Kupffer cells are macrophages present in the liver, and are known to play an essential role in the initiation of inflammation. To distinguish Kupffer cells and LSECs, magnetic-activated cell sorting (MACS) was performed using the MiniMACS™ separator system (MiltenyiBiotec, Seoul, Korea). The purity of LSECs was evaluated by fluorescence-activated cell sorting using anti-PE antibody (purity of 90% or higher). Primary cells were cultured in 1.5 mL of a serum-free medium for 4 hours, and treated with 5(w/w)% of bovine serum albumin (BSA, control), 200 μM palmitate/5(w/w)% BSA solution, and 500 μM palmitate/5(w/w)% BSA, respectively. After 3 and 6 hours, cells were collected and further analyzed. Reverse-transcription polymerase chain reaction (RT-PCR) and real-time PCR were performed to assess the expression of GDF15 mRNA after palmitate treatment.

[1] = test system: LX-2 cells (human hepatic stellate cells); test: rhGDF15 treatment of LX-2 cells, fibrosis markers by immunoblotting and immunofluorescence; assay type: cell-based
Method: (§1) Recombinant human GDF15 (rhGDF15; R&D Systems; 957-GD-025) was added to LX-2 cells (human hepatic stellate cells, KAIST), cultured in the presence of 100 ng/mL GDF15 and 10 ng/mL TGF-β, and primary hepatocytes, directly isolated from the mouse liver, at […] per 3×10^5 cells/6 wells. The levels of fibrosis markers, such as alpha-smooth muscle actin (α-SMA) and collagen 1, were assessed by immunoblotting, immunohistochemistry, and immunofluorescence staining.

primary hepatocytes = test: rhGDF15 treatment of primary hepatocytes, immunoblotting; assay type: cell-based, mouse; conditions: FIG. 4D
Method: as §1

Molecule | increase in GDF15 mRNA expression (Kupffer cells; 200 μM, P=0.009, FIG. 5B) [fold] | increase in GDF15 mRNA expression level (Kupffer cells; 500 μM, after 3 hours, P=0.004, FIG. 5A) | increase in GDF15 mRNA expression (Kupffer cells; 500 μM, P=0.032, FIG. 5B) [fold] | cell apoptosis ([1]; LX-2 cells, FIG. 4A) | expression of fibrosis markers α-SMA and collagen 1 ([1]; LX-2 cells, immunoblotting, FIG. 4A) | α-SMA expression, immunofluorescent staining ([1]; LX-2 cells, treatment for 12 hours, FIG. 4B) | acute stimulatory effect on hepatocytes ([1]; after 12 hours) | time to increase of α-SMA level after treatment ([1]; after GDF15 treatment) [h] | time to induction of SMAD phosphorylation after treatment ([1]; after GDF15 treatment) [h] | phosphorylation of SMAD2 and SMAD3 ([1]; printed as human hepatocytes, FIG. 4C (LX-2 cells)) | phosphorylation of SMAD2 and SMAD3 (primary hepatocytes)
CCCCCCCCCCCCCCCC(=O)O [palmate, palmitate] | 2.5 | approximately 2 fold | 1.5 |  |  |  |  |  |  |  | 
rhGDF15: Recombinant human GDF15 (rhGDF15; R&D Systems; 957-GD-025), growth differentiation factor 15 protein (protein, listed as Homo sapiens) ARARNGDHCPLGPGRCCRLHTVRASLEDLGWADWVLSPREVQVTMCIGACPSQFRAANMHAQIKTSLHRLKPDTVPAPCCVPASYNPMVLIQKTDTGVSLQTYDDLLAKDCHCI |  |  |  | not influenced | increased | high expression | remarkably reduced | ≤ 12 | ≤ 3 | increasing | upregulating
